In test [1] the target is HLA-B*07:02. In words: IEDB peptide-MHC binding, purified MHC/direct/fluorescence; filed as Kd, often an IC50 or EC50 that approximates it; ≥ and ≤ were set here for values at or beyond the usual limits of such assays.
The target of test [2] is HLA-B*51:01. The description is as above.
The target in test [3] is HLA-B*27:05. The description is as above.
The target in test [4] is HLA-A*29:02. The description is as above.
The target of test [5] is HLA-B*18:01. Described as above.
The target in test [6] is HLA-A*03:01. The description is as above.
Test [7] concerns the target HLA-A*01:01. Described as above.
The target in test [8] is HLA-A*69:01. Described as above.
Test [9] has as its target HLA-B*57:01. The test is described as above.
Test [10] deals with HLA-B*15:01. The description is as above.
Test [11] addresses HLA-A*02:12. Described as above. The note with it: source organism: Orthohantavirus andesense.
The target of test [12] is HLA-A*11:01. The test is described as above.
Test [13] concerns the target HLA-B*48:01. The test is described as above.
The target of test [14] is HLA-A*68:02. Described as above. The note with it: source organism: Orthohantavirus andesense.
Test [15] has as its target HLA-A*31:01. Described as above.
Test [16] deals with HLA-A*02:01. The test is described as above.
Test [17] deals with HLA-B*44:02. Described as above.
In test [18] the target is HLA-B*58:01. The description is as above.
The target of test [19] is HLA-B*39:01. Described as above.
Test [20] addresses HLA-B*40:01. Described as above.
Test [21] concerns the target HLA-B*46:01. The description is as above.
The target of test [22] is HLA-B*27:03. Briefly: IEDB peptide-MHC binding, purified MHC/competitive/fluorescence; filed as Kd, often an IC50 or EC50 that approximates it; ≥ and ≤ were set here for values at or beyond the usual limits of such assays. As to conditions: source organism: Orthohantavirus andesense.
The target of test [23] is HLA-B*15:17. The description is as above. The note with it: source organism: Orthohantavirus andesense.
Test [24] has as its target HLA-A*26:01. The description is as above. The note with it: source organism: Orthohantavirus andesense.
Test [25] concerns the target HLA-B*51:01. Described as above. The note with it: source organism: Orthohantavirus andesense.
In test [26] the target is HLA-B*08:01. Briefly: IEDB peptide-MHC binding, purified MHC/direct/fluorescence; filed as Kd, often an IC50 or EC50 that approximates it; ≥ and ≤ were set here for values at or beyond the usual limits of such assays.
In test [27] the target is HLA-A*26:01. Described as above. As to conditions: source organism: Brucella abortus.
For test [28], the target named is HLA-A*02:16. In words: IEDB peptide-MHC binding, purified MHC/competitive/fluorescence; filed as Kd, often an IC50 or EC50 that approximates it; ≥ and ≤ were set here for values at or beyond the usual limits of such assays. The note with it: source organism: Entamoeba histolytica HM-1:IMSS.
Test [29] concerns the target HLA-A*02:01. Described as above. The note with it: source organism: Entamoeba histolytica HM-1:IMSS.
Setting [30] is: source organism: Orthohantavirus hantanense.
Setting [31] is: source organism: Orthohantavirus andesense.
[32] abbreviates: source organism: Mammarenavirus machupoense.
Setting [33] is: source organism: Brucella melitensis.
Where [34] appears, read: source organism: Brucella abortus.
[35] abbreviates: source organism: Mycobacterium tuberculosis str. Haarlem.
Setting [36] is: source organism: Mycobacterium tuberculosis.
Setting [37] is: source organism: Mammarenavirus juninense.
The mark [38] stands for this setting: source organism: Yersinia pestis.

Drawing on the Immune Epitope Database (IEDB), this text covers Kd for nine sequences.

As for AVRTDGSNI, the results for the Kd in test [1] (setting [30]) and in test [2] (setting [30]) were 0.261 µM and no less than 20 µM, respectively.
AYDHGNVIL: the Kd in test [3] (setting [31]), in [4] (setting [31]), in [5] (setting [31]), in test [6] (setting [31]), in [7] (setting [31]) and in test [8] (setting [31]) was no less than 20 µM each time. The dissociation constant Kd in [1] (setting [31]), in test [9] (setting [31]), in test [10] (setting [31]), in [11], in test [12] (setting [31]) and in test [13] (setting [31]) was no less than 20 µM in each case. The dissociation constant Kd in test [14] is no less than 20 µM; in test [15] (setting [31]), no less than 20 µM; in [16] (setting [31]), no less than 20 µM; in [17] (setting [31]), no less than 20 µM; in test [18] (setting [31]) it was no less than 20 µM; in test [19] (setting [31]), 0.0657 µM. Also, the dissociation constant (Kd) in test [20] (setting [31]), in test [21] (setting [31]), in test [22], in test [23], in test [24] and in test [25] was no less than 20 µM each time.
Turning to FHEFLSSKL, the Kd in [3] (setting [32]), in test [6] (setting [32]), in [7] (setting [32]), in test [1] (setting [32]), in test [9] (setting [32]) and in test [10] (setting [32]) was no less than 20 µM in each case. The Kd in test [12] (setting [32]), in test [13] (setting [32]), in [15] (setting [32]), in test [16] (setting [32]), in test [17] (setting [32]) and in [18] (setting [32]) was no less than 20 µM throughout. The Kd was 0.0731 µM in test [19] (setting [32]) and no less than 20 µM in test [21] (setting [32]).
Consider GRDHVRVTL, for which the dissociation constant (Kd) in test [3] (setting [33]) is 0.315 µM; in test [6] (setting [34]) it was no less than 20 µM; in test [7] (setting [34]) it was no less than 20 µM; in test [8] (setting [34]), no less than 20 µM; in test [1] (setting [34]), no less than 20 µM; in test [10] (setting [34]), no less than 20 µM. Moreover, the Kd in test [12] (setting [34]) was no less than 20 µM; in test [26] (setting [33]), 2.56 µM; in test [15] (setting [34]), no less than 20 µM; in test [16] (setting [34]), no less than 20 µM; in test [17] (setting [34]), no less than 20 µM; in test [27], no less than 20 µM. In addition, the dissociation constant (Kd) in test [18] (setting [34]) is no less than 20 µM; in test [19] (source organism: Brucella suis 1330), 0.053 µM; in [20] (setting [33]), no less than 5 µM.
With QTYMYTGQY, the Kd in test [4] (setting [35]) is 0.017 µM; in test [7] (setting [36]), 0.512 µM.
Take QVKRREGMF: the Kd in test [3] (setting [37]), in test [4] (setting [37]), in [5] (setting [37]), in test [6] (setting [37]), in test [7] (setting [37]) and in test [8] (setting [37]) was no less than 20 µM each time. The dissociation constant (Kd) is no less than 20 µM in test [1] (setting [37]); no less than 20 µM in [9] (setting [37]); no less than 20 µM in test [12] (setting [37]); 1.55 µM in [26] (setting [37]); no less than 20 µM in [13] (setting [37]); no less than 20 µM in test [15] (setting [37]). Also, the dissociation constant (Kd) in test [16] (setting [37]), in test [17] (setting [37]), in test [18] (setting [37]), in test [20] (setting [37]) and in [21] (setting [37]) was no less than 20 µM throughout.
On to SAHSADGHY, for which the Kd is 0.02 µM in test [4] (setting [35]) and no less than 20 µM in test [7] (setting [36]).
On to SLKERIDML, for which the results for the Kd in [28] and in test [29] were 0.0028 µM and 0.0013 µM, respectively.
WANDFNHHY: the dissociation constant (Kd) in test [1] (setting [38]) was no less than 20 µM; in test [10] (source organism: Yersinia pestis CA88-4125) it was 0.029 µM; in test [2] (setting [38]), no less than 20 µM.

Broadly, the Kd is the concentration at which binding is half-saturated. Low values mean a tighter complex, high ones a looser complex.
